Six molecules from PMC11662656, “Intrinsically disordered RNA-binding motifs cooperate to catalyze RNA folding and drive phase separation” can be followed below.

Data set [1] addresses Loc1p (Saccharomyces cerevisiae, UniProt P43586 1-204). Put plainly: EMSA; nanomolar range; 100 ug/ml yeast tRNA; EMSA: 20 mM HEPES pH 7.8, 200 mM NaCl, 2 mM MgCl2, 2 mM DTT, 4% glycerol, 25 C, 5 nM RNA, 100 ug/ml tRNA (omitted in competition); NMR: 20 mM Na phosphate pH 7.4, 50 mM NaCl, 278 K. As to conditions: protein: recombinant; hairpin. In general terms: A gel shift assay detects complexes by their altered migration in electrophoresis.

Data set [2] addresses T1, MBP-Loc1p (Saccharomyces cerevisiae, UniProt P43586 1-204). Nature of the data set: competition; vs labeled ASH1 E3; 10-500x; EMSA: 20 mM HEPES pH 7.8, 200 mM NaCl, 2 mM MgCl2, 2 mM DTT, 4% glycerol, 25 C, 5 nM RNA, 100 ug/ml tRNA (omitted in competition); NMR: 20 mM Na phosphate pH 7.4, 50 mM NaCl, 278 K. The note with it: protein: recombinant; tags: MBP; hairpin.
Another data set has as its target T2, Loc1p array peptide A9 (Saccharomyces cerevisiae, UniProt P43586 25-44).
T2 chain: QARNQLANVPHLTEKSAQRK
Put plainly: peptide array; EMSA: 20 mM HEPES pH 7.8, 200 mM NaCl, 2 mM MgCl2, 2 mM DTT, 4% glycerol, 25 C, 5 nM RNA, 100 ug/ml tRNA (omitted in competition); NMR: 20 mM Na phosphate pH 7.4, 50 mM NaCl, 278 K. As to conditions: tags: array-immobilized; label: radioactive.

The target of another data set is T3, Loc1p array peptide A7 (Saccharomyces cerevisiae, UniProt P43586 19-38).
T3 chain: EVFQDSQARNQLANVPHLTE
The description is as above. The note with it: tags: array-immobilized; label: radioactive.

The target in another data set is Loc1p array peptide A15 (Saccharomyces cerevisiae, UniProt P43586 43-62). Described as above. The note with it: tags: array-immobilized; label: radioactive.
For another data set, the target named is Loc1p array peptide C15 (Saccharomyces cerevisiae, UniProt P43586 163-182). The data set is described as above. The note with it: tags: array-immobilized; label: radioactive.
The target of a further data set is Loc1p array peptide B8 (Saccharomyces cerevisiae, UniProt P43586 82-101). Described as above. As to conditions: tags: array-immobilized; label: radioactive.
In a further data set the target is Loc1p array peptide B5 (Saccharomyces cerevisiae, UniProt P43586 73-92). The description is as above. As to conditions: tags: array-immobilized; label: radioactive.
Another data set addresses Loc1p array peptide B6 (Saccharomyces cerevisiae, UniProt P43586 76-95). Described as above. As to conditions: tags: array-immobilized; label: radioactive.
A further data set concerns the target T4, Loc1p array peptide A10 (Saccharomyces cerevisiae, UniProt P43586 28-47).
T4 chain: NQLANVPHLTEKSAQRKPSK
Described as above. The note with it: tags: array-immobilized; label: radioactive.

The target of the next data set is T5, Loc1p array peptide A11 (Saccharomyces cerevisiae, UniProt P43586 31-50).
T5 chain: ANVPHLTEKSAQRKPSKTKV
The description is as above. The note with it: tags: array-immobilized; label: radioactive.

The next data set has as its target Loc1p array peptide B7 (Saccharomyces cerevisiae, UniProt P43586 79-98). The description is as above. As to conditions: tags: array-immobilized; label: radioactive.
The target in a further data set is Loc1p array peptide A14 (Saccharomyces cerevisiae, UniProt P43586 40-59). Described as above. As to conditions: tags: array-immobilized; label: radioactive.
The target of another data set is T6, Loc1p array peptide B19 (Saccharomyces cerevisiae, UniProt P43586 115-134).
T6 chain: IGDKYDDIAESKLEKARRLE
Described as above. The note with it: tags: array-immobilized; label: radioactive.

Another data set concerns the target T7, Loc1p (3-15) (Saccharomyces cerevisiae, UniProt P43586 3-15).
T7 chain: PKKPSKRQNLRRE
Put plainly: NMR (1H-15N HSQC titration); range over peptide signals; EMSA: 20 mM HEPES pH 7.8, 200 mM NaCl, 2 mM MgCl2, 2 mM DTT, 4% glycerol, 25 C, 5 nM RNA, 100 ug/ml tRNA (omitted in competition); NMR: 20 mM Na phosphate pH 7.4, 50 mM NaCl, 278 K. As to conditions: protein: recombinant; tags: GST removed by thrombin (15N,13C sample); hairpin, 11 bp stem, GAAA loop.

Data set [3] concerns the target Loc1p (Saccharomyces cerevisiae, UniProt P43586 1-204). Nature of the data set: EMSA; nanomolar range; 100 ug/ml yeast tRNA; EMSA: 20 mM HEPES pH 7.8, 200 mM NaCl, 2 mM MgCl2, 2 mM DTT, 4% glycerol, 25 C, 5 nM RNA, 100 ug/ml tRNA (omitted in competition); NMR: 20 mM Na phosphate pH 7.
Data set [4] has as its target T8, MBP-Loc1p (Saccharomyces cerevisiae, UniProt P43586 1-204). Nature of the data set: competition; vs labeled TAR-57; 10-500x; EMSA: 20 mM HEPES pH 7.8, 200 mM NaCl, 2 mM MgCl2, 2 mM DTT, 4% glycerol, 25 C, 5 nM RNA, 100 ug/ml tRNA (omitted in competition); NMR: 20 mM Na phosphate pH 7.
Data set [5] has as its target T8, MBP-Loc1p. Nature of the data set: competition; vs labeled ASH1 E3; 10-500x; EMSA: 20 mM HEPES pH 7.8, 200 mM NaCl, 2 mM MgCl2, 2 mM DTT, 4% glycerol, 25 C, 5 nM RNA, 100 ug/ml tRNA (omitted in competition); NMR: 20 mM Na phosphate pH 7.
In data set [6] the target is T1, MBP-Loc1p. Nature of the data set: competition; vs labeled TAR-57; 10-500x; EMSA: 20 mM HEPES pH 7.8, 200 mM NaCl, 2 mM MgCl2, 2 mM DTT, 4% glycerol, 25 C, 5 nM RNA, 100 ug/ml tRNA (omitted in competition); NMR: 20 mM Na phosphate pH 7.4, 50 mM NaCl, 278 K. As to conditions: protein: recombinant; tags: MBP.
Data set [7] deals with T8, MBP-Loc1p. Put plainly: EMSA; 100 nM DNA; affinity similar to ssRNA; EMSA: 20 mM HEPES pH 7.8, 200 mM NaCl, 2 mM MgCl2, 2 mM DTT, 4% glycerol, 25 C, 5 nM RNA, 100 ug/ml tRNA (omitted in competition); NMR: 20 mM Na phosphate pH 7.

The Kd is the equilibrium constant for the complex coming apart.

B1: HIV TAR-57 (structured_RNA)
RNA: GGUCUCUCUGGUUAGACCAGAUCUGAGCCUGGGAGCUCUCUGGCUAACUAGGGAACC
Turning to B1, the binding result with Loc1p [1] and with MBP-Loc1p [2] was “binds” in each case.

B2: ASH1 E3 (short) (structured_RNA)
RNA: AUGGAUAACUGAAUCUCUUUCAACUAAUAAGAGACAUUAUCACGAAACAAU
In the case of B2, the binding result is recorded as “binds” with Loc1p array peptide A9; “no binding” in the data set with Loc1p array peptide A7; “binds” in the data set with Loc1p array peptide A15; “binds” in the data set with Loc1p array peptide C15; “binds” with Loc1p array peptide B8; “binds” with Loc1p array peptide B5. The binding result in the data set with Loc1p array peptide B6 is listed as “binds”; with Loc1p array peptide A10, “binds”; with Loc1p array peptide A11, “binds”; with Loc1p array peptide B7 it was “binds”; in the data set with Loc1p array peptide A14, “binds”; with Loc1p array peptide B19 it was “no binding”.

B3: dsRNA tetraloop (structured_RNA)
RNA: UCUCUGGUUAGGAAACUAACUAGGGA
Turning to B3, in the data set with Loc1p (3-15), the Kd was around 73.7 µM.

B4: EAR1 LE (ssRNA)
RNA: CGAAGAUGAAAAUGAUCACGAGAGAGAUCCCGAACAAUUUUCAGAAUUUG
For B4, the binding result with Loc1p [3] and in the data set with MBP-Loc1p [4] was “binds” throughout.

B5: poly-A60 (ssRNA)
RNA: AAAAAAAAAAAAAAAAAAAAAAAAAAAAAAAAAAAAAAAAAAAAAAAAAAAAAAAAAAAA
With B5, the binding result with Loc1p [3], in the data set with MBP-Loc1p [5] and with MBP-Loc1p [6] was “binds” in each case.

B6: Cy3-A(21) ssDNA (ssDNA)
DNA: AAAAAAAAAAAAAAAAAAAAA
For the molecule B6, the binding result with MBP-Loc1p [7] is given as “binds”.
